Reference: patent US20110251266, “APTAMER FOR NGF AND USE THEREOF” (Shionogi & Co., Ltd., published 2011)
Changes are numbered by the printed parent chain.

B1: SEQ69 mosaic aptamer (mixed)
DNA: GGGAGAGGCAAGAATAGGGCCCAGCTGAAAAAAACCTGGACGTACACCGTTCGCCGAGCGGGTGAAGAGAAGAGACATTAGGA
modifications: purines ribo, pyrimidines (C,T) deoxy
B2: SEQ62 aptamer (ssRNA)
RNA: GGGAGAACUUCGACCAGAAGUUUGAAAGAAACCCAAAUUAAAGUGAACAGUAUGUGCGCAUACAUGGAUCCUCA
modifications: 2'-F pyrimidines
B3: SEQ62 aptamer (ssRNA)
RNA: B2 RNA
modifications: 2'-F all pyrimidines
B4: SEQ37 aptamer (ssRNA)
RNA: B2 RNA with U38G, U39G, A40U, A41G, G43A, U44A, G45C, G50A
modifications: 2'-F all pyrimidines
B5: SEQ41 aptamer (ssRNA)
RNA: B2 RNA with A29G, U38G, U39C, A40G, G43A, U44C, G45A, C48A, A49C
modifications: 2'-F all pyrimidines
B6: SEQ85 aptamer (ssRNA)
RNA: GGGAGAACUUCGACCAGAAGCGGAAGCCUGCGUAACCGCAGGAUGAAAACAACCGUAUGUGCGCAUACAUGGAUCCUC
modifications: 2'-F all pyrimidines
B7: SEQ73 mosaic aptamer (mixed)
DNA: GGGAGAGGCAAGAATAGGGCACTTGAAAAAAACCCAAAGAAAGAATACTTACCCGGCGCGTGAAGAGAAGAGACATTAGGA
modifications: purines ribo, pyrimidines (C,T) deoxy
B8: SEQ40 aptamer (ssRNA)
RNA: GGGAGAACUUCGACCAGAAGUUUGAAAAAAACCCAGGAAAAUGGAAGACGUAUGUGCGCAUACAUGGAUCCUCA
modifications: 2'-F pyrimidines
B9: SEQ64 aptamer (ssRNA)
RNA: B8 RNA with A28G, G36A, G37A, A39C, A41U, G43A, A45C, G47C, G50A
modifications: 2'-F all pyrimidines
B10: SEQ40 aptamer (ssRNA)
RNA: B8 RNA
modifications: 2'-F all pyrimidines
B11: SEQ42 aptamer (ssRNA)
RNA: B8 RNA with G36A, G37A, A39G, A41G, U42C, G43A, A45C, C49G, G50A
modifications: 2'-F all pyrimidines
B12: SEQ67 aptamer (ssRNA)
RNA: GGGAGAACUUCGACCAGAAGUCGAUAACGAACAAAACUCCCAAAGGAAUAUAUGUGCGCAUACAUGGAUCCUCA
modifications: 2'-F pyrimidines
B13: SEQ67 aptamer (ssRNA)
RNA: B12 RNA
modifications: 2'-F all pyrimidines
B14: SEQ68 aptamer (ssRNA)
RNA: B12 RNA with U25G, A27G, C32A, A33G, G45A, G46C, A48C, U49A, A50G
modifications: 2'-F all pyrimidines
B15: SEQ38 aptamer (ssRNA)
RNA: GGGAGAACUUCGACCAGAAGAGAAUGAAACUCCACAAAGUACAUAAAACAUAUGUGCGCAUACAUGGAUCCUCA
modifications: 2'-F all pyrimidines
B16: SEQ86 aptamer (ssRNA)
RNA: GGGAGAACUUCGACCAGAAGGAGUAGCCAGUGAACCUGGAAUAUGAAAAAAACCUUAUGUGCGCAUACAUGGAUCCUC
modifications: 2'-F all pyrimidines
B17: SEQ79 aptamer (ssRNA)
RNA: GGGAGAACUUCGACCAGAAGGAUAGCCAUGUGGAGGUGAAGACUGAAAUAAACCAUAUGUGCGCAUACAUGGAUCCUC
modifications: 2'-F all pyrimidines
B18: SEQ81 aptamer (ssRNA)
RNA: GGGAGAACUUCGACCAGAAGGAGAUGACUGUGUAACCACAGUAUGAAAUAAACUCUAUGUGCGCAUACAUGGAUCCUC
modifications: 2'-F all pyrimidines
B19: SEQ51 aptamer (ssRNA)
RNA: GGGAGAACUUCGACCAGAAGUUUGAAAGAAACCCAAAAAAACAACAUAUGAACUAUGUGCGCAUACAUGGAUCCUCA
modifications: 2'-F all pyrimidines
B20: SEQ77 aptamer (ssRNA)
RNA: GGGAGAACUUCGACCAGAAGUGAAAAAAUCUCCAGUUGCAAGACGAAACAAACCUUAUGUGCGCAUACAUGGAUCCUC
modifications: 2'-F all pyrimidines
B21: SEQ39 aptamer (ssRNA)
RNA: GGGAGAACUUCGACCAGAAGUGUGAAAAGAACCCAAAUAAAACAACAAUGUAUGUGCGCAUACAUGGAUCCUCA
modifications: 2'-F all pyrimidines
B22: SEQ58 aptamer (ssRNA)
RNA: B21 RNA with G22U, A40C, A42G, C43A, A45U, C46A
modifications: 2'-F all pyrimidines
B23: SEQ71 mosaic aptamer (mixed)
DNA: GGGAGAGGCAAGAATAGGGCACTTGAAAAAAACCCAAATTTACCGTCTTCAGCGTCGGGTGTGAAGAGAAGAGACATTAGGA
modifications: purines ribo, pyrimidines (C,T) deoxy
B24: SEQ70 mosaic aptamer (mixed)
DNA: GGGAGAGGCAAGAATAGGGCTGGAAATAGAACCGCGCTGTCTTCATTAAGCCGCCCAACGGTGAAGAGAAGAGACATTAGGA
modifications: purines ribo, pyrimidines (C,T) deoxy
B25: SEQ80 aptamer (ssRNA)
RNA: GGGAGAACUUCGACCAGAAGUGAAAACAACCUCCCAAUAAUGAUCACAGAAAUCCUAUGUGCGCAUACAUGGAUCCUC
modifications: 2'-F all pyrimidines
B26: SEQ52 aptamer (ssRNA)
RNA: GGGAGAACUUCGACCAGAAGUUUGAAAGAAACCCAAAUAUACAAAACACUAUGUGCGCAUACAUGGAUCCUCA
modifications: 2'-F all pyrimidines
B27: SEQ75 aptamer (ssRNA)
RNA: GGGAGAACUUCGACCAGAAGUGAAAGAAUCUCCAAAGACAAGAUAAAAACAACCGUAUGUGCGCAUACAUGGAUCCUC
modifications: 2'-F all pyrimidines
B28: SEQ54 aptamer (ssRNA)
RNA: GGGAGAACUUCGACCAGAAGUCGAAAGUGAAAGAAACUCCAACGAAAGCAUAUGUGCGCAUACAUGGAUCCUCA
modifications: 2'-F all pyrimidines
B29: SEQ82 aptamer (ssRNA)
RNA: GGGAGAACUUCGACCAGAAGAGGAUGCUUGUUUGGUUACAAGCUGAAAGAAACCUUAUGUGCGCAUACAUGGAUCCUC
modifications: 2'-F all pyrimidines
B30: SEQ57 aptamer (ssRNA)
RNA: GGGAGAACUUCGACCAGAAGUUUGAAAAAAACCCAAACACCGAAGCACAAAUAUGUGCGCAUACAUGGAUCCUCA
modifications: 2'-F all pyrimidines
B31: SEQ76 aptamer (ssRNA)
RNA: GGGAGAACUUCGACCAGAAGGAUAAACGCAUGUAUUUGCAGUAUUAAAAAUGCCUUAUGUGCGCAUACAUGGAUCCUC
modifications: 2'-F all pyrimidines
B32: SEQ78 aptamer (ssRNA)
RNA: GGGAGAACUUCGACCAGAAGUGUGUAUUGUUCAGGGUGUGCCCAGCCUAUAACCAUAUGUGCGCAUACAUGGAUCCUC
modifications: 2'-F all pyrimidines
B33: SEQ74 mosaic aptamer (mixed)
DNA: GGGAGAGGCAAGAATAGGGCATAGTGTAGACCCCTCTCAAGATACCCCATGAATTGCCCCGTGAAGAGAAGAGACATTAGGA
modifications: purines ribo, pyrimidines (C,T) deoxy
B34: SEQ72 mosaic aptamer (mixed)
DNA: GGGAGAGGCAAGAATAGGGCTGGATGGGCAGTAACCTGAAAAAAACCACCCACCTCTACCGTGAAGAGAAGAGACATTAGGA
modifications: purines ribo, pyrimidines (C,T) deoxy
B35: SEQ49 aptamer (ssRNA)
RNA: GGGAGAACUUCGACCAGAAGUGAAAGAAACUCCCAAGACGGUAACGAAAGUAUGUGCGCAUACAUGGAUCCUCA
modifications: 2'-F all pyrimidines
B36: SEQ83 aptamer (ssRNA)
RNA: GGGAGAACUUCGACCAGAAGUUGAAGCUUGAAAAAAACCCAGGAUUAAACAGACAGUAUGUGCGCAUACAUGGAUCCUC
modifications: 2'-F all pyrimidines

What was measured:
[1] = target: T1, beta-NGF (nerve growth factor) (Homo sapiens, UniProt P01138 P01138:122-241); test: SPR; blocks NGF-TrkA and NGF-P75; conditions: tags: R&D Systems; chain copies: 2
T1 sequence (P01138 122-241, one chain of several): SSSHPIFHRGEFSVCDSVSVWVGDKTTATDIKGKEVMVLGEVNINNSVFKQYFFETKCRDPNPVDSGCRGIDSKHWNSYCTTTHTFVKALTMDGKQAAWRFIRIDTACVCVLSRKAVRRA
Protocol: As directed in BIAcore Company's protocol, Protein A (21181, PIERCE) was immobilized on a CM5 sensor chip. About 1100 RU of human Trk A-Fc fused with the Fc portion of IgG (175-TK, R&D systems) was immobilized thereon. As the analyte, a mixture of NGF (0.1 μM) and each aptamer (0.33 μM) was injected after being allowed to stand for 30 minutes. […] When NGF binds stronger to a receptor than an aptamer, the aptamer may be removed and NGF may bind to the receptor. […] Using the binding amount of NGF and NGF receptor without an aptamer as 100, the binding amount of NGF and NGF receptor added with an aptamer was determined as a correction value. Here, the binding amount is the RU value at the peak top of the sensorgram of BIAcore (RU value immediately after completion of NGF injection). […] A similar experiment was performed for another receptor P75 (p75-Fc; R&D systems).

[2] = target: T1, beta-NGF (nerve growth factor); test: cell_activity; Neuroscreen-1 neurite outgrowth; conditions: tags: R&D Systems human NGF; chain copies: 2
Protocol: The neurite outgrowth inhibitory activity of aptamer was evaluated by using Neuroscreen-1 cell, which is a subclone of PC-12 cells. 2500 Cells per well were cultured for one day in an RPMI-1640 medium containing 2.5% horse serum and 1.25% fetal bovine serum in a 96 well flat-bottom plate coated with collagen type IV. A mixed solution of NGF (final concentration 15 ng/ml or 1.1 nM) prereacted in a serum-free RPMI-1640 medium at room temperature or 37° C. for 30 min to 1 hr and an aptamer (final concentration 500-3 nM) was added. Two or three days later, the cytoplasm and nuclei were stained using Cellomics Neurite Outgrowth Kits (manufactured by Thermo Scientific), and neurite length per cell was measured by Cellomics ArrayScan VTI (manufactured by Thermo Scientific). With the neurite length per cell obtained by culturing the cell for 2 days with the addition of NGF alone as inhibitory activity 0%, and that of the cell obtained by NGF free culture as inhibitory activity 100%, the inhibitory activity of the aptamer was calculated from the neurite length per cell obtained by culturing with the addition of NGF and the aptamer in mixture. […] When the inhibitory activity was 0% or below, ‘0%’ is indicated. When it was not less than 100%, ‘100%’ is indicated. The 50% inhibitory concentration was determined from the concentrations at two, above and below points sandwiching the 50% inhibitory activity.

Row | Binder | activity [1] [% inhibition] | IC50 [2] [nM]
1 | B1 | ≥ 60 | –
2 | B2 | – | 2
3 | B3 | ≥ 60 | –
4 | B4 | ≥ 60 | –
5 | B5 | ≥ 60 | –
6 | B6 | ≥ 60 | –
7 | B7 | ≥ 60 | –
8 | B8 | – | 2.4
9 | B9 | ≥ 60 | –
10 | B10 | ≥ 60 | –
11 | B11 | ≥ 60 | –
12 | B12 | – | 2.7
13 | B13 | ≥ 60 | –
14 | B14 | ≥ 60 | –
15 | B15 | ≥ 60 | –
16 | B16 | ≥ 60 | –
17 | B17 | ≥ 60 | –
18 | B18 | ≥ 60 | –
19 | B19 | ≥ 60 | –

Row | Binder | activity [1] [% inhibition] | IC50 [2] [nM]
20 | B20 | ≥ 60 | –
21 | B21 | ≥ 60 | –
22 | B22 | ≥ 60 | –
23 | B23 | ≥ 60 | –
24 | B24 | ≥ 60 | –
25 | B25 | ≥ 60 | –
26 | B26 | ≥ 60 | –
27 | B27 | ≥ 60 | –
28 | GGGAAGCCUGUGGAGCUGCAGGAUGAAAAAAACCCAAA (ssRNA, 2'-F all pyrimidines) [SEQ35 aptamer] | ≥ 60 | –
29 | B28 | ≥ 60 | –
30 | B29 | ≥ 60 | –
31 | B30 | ≥ 60 | –
32 | B31 | ≥ 60 | –
33 | B32 | ≥ 60 | –
34 | B33 | ≥ 60 | –
35 | B34 | ≥ 60 | –
36 | B35 | ≥ 60 | –
37 | B36 | ≥ 60 | –
